From US7977317B2, “Compositions and methods for modulating blood-brain barrier transport” (Raptor Pharmaceutical Inc., priority 2001, dated 2011)
Entries after “also recorded” stand apart in the source; their conditions may differ.

B1: p97: recombinant human melanotransferrin (p97), provided by Synapse Technologies (protein, UniProt P08582 20-709, looked up)
Melanotransferrin: GMEVRWCATSDPEQHKCGNMSEAFREAGIQPSLLCVRGTSADHCVQLIAAQEADAITLDGGAIYEAGKEHGLKPVVGEVYDQEVGTSYYAVAVVRRSSHVTIDTLKGVKSCHTGINRTVGWNVPVGYLVESGRLSVMGCDVLKAVSDYFGGSCVPGAGETSYSESLCRLCRGDSSGEGVCDKSPLERYYDYSGAFRCLAEGAGDVAFVKHSTVLENTDGKTLPSWGQALLSQDFELLCRDGSRADVTEWRQCHLARVPAHAVVVRADTDGGLIFRLLNEGQRLFSHEGSSFQMFSSEAYGQKDLLFKDSTSELVPIATQTYEAWLGHEYLHAMKGLLCDPNRLPPYLRWCVLSTPEIQKCGDMAVAFRRQRLKPEIQCVSAKSPQHCMERIQAEQVDAVTLSGEDIYTAGKTYGLVPAAGEHYAPEDSSNSYYVVAVVRRDSSHAFTLDELRGKRSCHAGFGSPAGWDVPVGALIQRGFIRPKDCDVLTAVSEFFNASCVPVNNPKNYPSSLCALCVGDEQGRNKCVGNSQERYYGYRGAFRCLVENAGDVAFVRHTTVFDNTNGHNSEPWAAELRSEDYELLCPNGARAEVSQFAACNLAQIPPHAVMVRPDTNIFTVYGLLDKAQDLFGDDHNKNGFKMFDSSNYHGQDLLFKDATVRAVPVGEKTTYRGWLGLDYVAALEGMSSQQC
B2: lactoferrin: lactoferrin (Lf), LRP ligand used as competitor (protein, UniProt P02788 20-710, looked up)
Lactotransferrin: GRRRSVQWCAVSQPEATKCFQWQRNMRKVRGPPVSCIKRDSPIQCIQAIAENRADAVTLDGGFIYEAGLAPYKLRPVAAEVYGTERQPRTHYYAVAVVKKGGSFQLNELQGLKSCHTGLRRTAGWNVPIGTLRPFLNWTGPPEPIEAAVARFFSASCVPGADKGQFPNLCRLCAGTGENKCAFSSQEPYFSYSGAFKCLRDGAGDVAFIRESTVFEDLSDEAERDEYELLCPDNTRKPVDKFKDCHLARVPSHAVVARSVNGKEDAIWNLLRQAQEKFGKDKSPKFQLFGSPSGQKDLLFKDSAIGFSRVPPRIDSGLYLGSGYFTAIQNLRKSEEEVAARRARVVWCAVGEQELRKCNQWSGLSEGSVTCSSASTTEDCIALVLKGEADAMSLDGGYVYTAGKCGLVPVLAENYKSQQSSDPDPNCVDRPVEGYLAVAVVRRSDTSLTWNSVKGKKSCHTAVDRTAGWNIPMGLLFNQTGSCKFDEYFSQSCAPGSDPRSNLCALCIGDEQGENKCVPNSNERYYGYTGAFRCLAENAGDVAFVKDVTVLQNTDGNNNEAWAKDLKLADFALLCLDGKRKPVTEARSCHLAMAPNHAVVSRMDKVERLKQVLLHQQAKFGRNGSDCPDKFCLFQSETKNLLFNDNTECLARLHGKTTYEKYLGPQYVAGITNLKKCSTSPLLEACEFLRK

Experiments:
BBCEC monolayers [1] = assay: Accumulation of ligands in BBCEC monolayers; assay type: cell-based, bovine; settings: for Accumulation in the cell monolayer of heat denatured ligand compared to normal ligand: ligand boiled 30 mins, 37° C. (FIG. 7)
Method: (§1) FIG. 7 illustrates the results of experiments where the ligands p97, Lf and Tf were heated or not heated prior to the binding study. In all cases, binding experiments were conducted in the transwell apparatus as described previously, with the exception that binding was conducted at either 4° C. or at 37° C. For the 37° C. trial, a separate experiment was conducted where the ligand was boiled for 30 mins then rapidly cooled prior to administration on the transwell plates.
(§2) FIG. 13 illustrates the transcytosis and accumulation of p97 and transferrin in BBCEC monolayers. FIG. 13a, Transcytosis experiments were performed at 37° C. (solid bars) or 4° C. (white bars). [^125I]-p97 or bovine [^125I]-holo-transferrin (1 mg/ml) was added to the upper side of the cell-covered filter. At the end of the experiment, radiolabelled proteins were measured in the lower chamber of each well by TCA precipitation (n=4). Controls were also performed at 37° C. with denatured [^125I]-p97 or bovine [^125I]-holo-transferrin boiled for 30 min (grey bars) (n=2); FIG. 13b, Biospecific interaction analysis was performed with native or boiled p97 for the indicated times. MAb L235 (5 μg) was immobilized on a sensor chip (SM5) using standard procedures incorporating NHS, EDC and ethanolamine. Native and boiled p97 (5 to 30 min) diluted at 1 mg/ml in Ringer/Hepes was cooled and injected into the BIAcore. The surface plasmon resonance response obtained for native p97 and boiled p97 was plotted (in relative units (RU)) as a function of time; FIG. 13c, The accumulation of both proteins into BBEC cells were also measured. Briefly, after incubation at 37° C. (solid bars) or 4° C. (white bars) with either [^125I]-protein, cells were washed four times with cold PBS. Accumulation of both denatured proteins (grey bars) was also measured at 37° C. Filters were then removed, and the radioactivity associated with the cells was quantified (n=3).
as §1, with “In” for “FIG. 7 illustrates the results of experiments where the ligands p97, Lf and Tf were heated or not heated prior to the binding study. In”

RBE4 cells = assay: Competition of [125I]-p97 binding on rat brain endothelial cells (RBE4); settings: competitor 10 micromolar, 2 hrs at 4° C. (FIG. 4)
Method: FIG. 4. Binding of p97 on rat brain endothelial cells. Binding p97 was performed with RBE4 that were pre-incubated 2 hrs in Ringer-Hepes. For the binding experiments, cells in 24-well microplates were incubated for 2 h at 4° C. in Ringer/Hepes in the presence of [^125I]-p97 (25 nM) and 10 micromolar concentrations of cold-p97, transferrin or lactoferin, respectively. At the end of the incubation, the cells were gently washed at 4° C. three times with 4 ml of cold-PBS. RBE4 cells were then lysed with Triton X-100 and the associated radioactivity of with cell lysates was determined.
RBE4 cells were grown in monolayers in 24 wells plastic tissue culture flasks at 37° C. under 5% CO2 in minimum essential medium Alpha and Ham's F10 (1:1) supplemented with 10% heat inactivated fetal bovine serum. For p97 binding experiments, RBE4 cells were pre-incubated at 37° C. for 2 hrs in Ringer/Hepes. ^125I-p97 in 200 μl of Ringer/Hepes was added to RBE4 cells for 2 hrs at 4° C. in the presence or absence of high concentration of cold-p97, human holo-transferrin or human lactoferrin. After the incubation, the cells were washed 4 times with PBS and the ^125I-p97 associated with the cells was measured.

BBCEC monolayers [2] = assay: Transcytosis across BBCEC monolayers (in vitro BBB model); assay type: cell-based, bovine; settings: for Effect on transcytosis of 125I-p97: competitor 5 micromolar (FIG. 10a, 10b)
Source text: FIG. 10 assesses the ability of several agents to interfere with p97 transyctosis. FIG. 10a, transcytosis of I125-P97 was compared in the presence of cold p97 (5 micromolar), Lf (5 micromolar), and Tf (5 micromolar). […] FIG. 10c, RAP, a known poly-peptide inhibitor of the LDL-Receptor family was applied to the cells (25 micrograms/ml).
FIG. 11 examines the accumulation and transcytosis of p97. FIG. 11a, of [^125I]-p97, [^125I]-BSA and [^125I]-holo-transferrin one hour after i.v. injection. The radioactivity in brain was compared between the three compounds. (n=3); FIG. 11b, Accumulation of p97 and transferrin into the mouse brain parenchyma. In situ brain perfusion was performed with human [^125I]-p97 or [^125I]-holo-transferrin at a final concentration of 10 nM via a catheter inserted in the right common carotid artery. The volume of distribution (VD) of [^125I]-proteins were obtained in the whole brain homogenate (white bars), in brain capillaries (solid bars) and in brain parenchyma (hatched bars) after isolation of the right hemisphere and capillary depletion. Results were obtained for p97 (n=10) and for holo-transferrin (n=6); FIG. 11c, Transcytosis of p97 across BBCEC monolayers. Transcytosis experiments were performed 37° C. (open circles) and 4° C. (closed circles) with BBCEC monolayers. [^125I]-p97 (1 mg/ml) was added to the upper side of the cell-covered filter. One representative experiment is shown (n=4); FIG. 11d, Preferential transport of p97 across the BBCEC monolayers. Apical-to-basal and basal-to-apical transport of [^125I]-p97 (25 nM) was measured for 2 hrs at 37° C. At the end of the experiment, [^125I]-p97 was assessed in the lower or upper chambers of each well by TCA precipitation (n=4).
as §2
FIG. 14 illustrates the stability of p97 and integrity of the BBCEC monolayers following p97 transcytosis. FIG. 14a, Transcytosis experiments were performed at 37° C. and 4° C. by adding p97 (1 mg/ml) to the upper compartment. At the end of the experiment, 50 μl from each lower chamber was used for SDS-polyacrylamide gel electrophoresis. After electrophoresis, the gels were stained with Coomassie Blue. A standard curve was also made with known amounts of recombinant p97 (0-2 μg); FIG. 14b. The gels were dried and scanned to quantify the amount of intact p97 that crossed the BBCEC monolayers at 37° C. and 4° C. (n=3); FIG. 14c, Effect of p97 on sucrose permeability of BBCE cell monolayers co-cultured with astrocytes. […]

Row | Molecule | Accumulation in the cell monolayer of heat denatured ligand compared to normal ligand (BBCEC monolayers [1]) | Accumulation in BBCE cells (BBCEC monolayers [1]; native proteins (FIG. 13c)) [μg/cm2] | Inhibition of [125I]-p97 binding to RBE4 cells (RBE4 cells) | [125I]-p97 transport apical-to-basolateral relative to basolateral-to-apical (BBCEC monolayers [2]; 25 nM, after 2 hrs at 37° C. (FIG. 11d)) | Temperature dependence of p97 transcytosis (BBCEC monolayers [2]; 37° C. versus 4° C., apical to basolateral) | Transport from the apical to the basolateral surface of ECs compared with transferrin (BBCEC monolayers [2]; 37° C., 1 mg/ml (FIG. 13a)) | Saturability of p97 transcytosis (BBCEC monolayers [2]; FIG. 9) | Degradation of p97 after transcytosis (BBCEC monolayers [2]; SDS-PAGE of lower compartment, 30-120 min (FIG. 14a)) | Effect of heat-denaturation on passage through BBCEC monolayers (BBCEC monolayers [2]; boiled 30 min, 37° C. (FIG. 13a)) | Effect on transcytosis of 125I-p97 (BBCEC monolayers [2]) | Membrane bound p97 transcytosed (BBCEC monolayers [2]; in 10 minutes (FIG. 20)) [%] | Total amount of intact p97 after transendothelial transcytosis (BBCEC monolayers [2]; p97 1 mg/ml, gel densitometry (FIG. 14b)) [μg/cm^2] | Accumulation of Lf compared with p97 at the end of the experiment (BBCEC monolayers [1]; FIG. 7)
1 | B1 | significantly lower accumulation | 5.7 | competitively inhibit | about 3 fold | significantly higher at 37 °C than at 4 °C; also recorded: dramatic reduction | much higher than for transferrin | saturable phenomenon | no apparent degradation | reduced the passage | successfully reduced | 80 | 35 | 
2 | B2 | significantly lower accumulation |  | competitively inhibit |  |  |  |  |  |  | only the cold p97 successfully reduced |  |  | almost twice as high
